Assay results from the DeepSol protein solubility set.

Assay: soluble on expression in E. coli; label from the status in PepcDB or PDB records

Row | Sequence | soluble on expression in E. coli
1 | MFFESCKSILYSDTLVPDIFITEYMPLLSSDSVKVYLYSLFLSKHNKKASTEEFAKSMGLEISTVKECLAQLESMGVLTWKEDGLVLHDLKEKEINKMYRLKTTSTPEEVASNCEKNKKRNEIIYTINNTFFQGVMSPSWYTDIDAWFDRYKFDEDVMLALFQYCFDHKGLIKPYIEKVAESWKNRNIRNAFDLDNYSIQYKKFKDVRSAIVKKLKLGRNLTEYEEAYVEKWVMDYNYDFDIIELALKKTTSKTNPNFDYLDSIITDWHNNNFKTKEEIMSYEAARKKKNSRTSSVSASVIVPQKGNFEQRKYEDEYLNSLYENA | not soluble
2 | MFFKQFYDKHLSQASYLIGCQKTGEAMIIDPIRDLSSYIRVADEEGLTITHAAETHIHADFASGIRDVAIKLNASIYVSGESDDTLGYKNMPNQTHFVQHNDDIYVGNIKLKVLHTPGHTPESISFLLTDEGAGAQVPMGLFSGDFIFVGDIGRPDLLEKAVKVEGSSEIGAKQMFKSIESIKDLPNYIQIWPGHGAGSPCGKSLGAIPTSTLGYEKQTNWAFSENNEATFIDKLISDQPAPPHHFAQMKKINQFGMNLYQPYTVYPATNTNRLTFDLRSKEAYHGGHIEGTINIPYDKNFINQIGWYLNYDQEINLIGEYHLVSKATHTLQLIGYDDVAGYQLPQSKIQTRSIHSEDITGNESHILDVRNDNEWNNGHLSQAVHVPHGKLLETDLPFNRNDVIYVHCQSGIRSSIAIGILEHKGYHNIINVNEGYKDIHLSLEHHHHHH | soluble
3 | MFGCITMSENNQCVIVGIAGASASGKSLIASTIYNELRAKVGDHQIGVITEDCYYKDQSHLSMEERVKTNYDHPSALDHDLLCQHLQMLARGEAVEVPEYSYTEHTRTEQTTTMTPKKVIILEGILLLTDPRLRDLMHATVFMDTPLDICLLRRVKRDVQERGRTMESVLKQYQETVRPMFMQFIEPSKQYADIIVPRGGKNRIAIDVLKAHIAKLLKS | not soluble
4 | MFGRHSIIPNNQIGTASASAGEDHVSASATSGHIPYDDMEEIPHPDSIYGAASDLIPDGSQLVAHRSDGSELLVSRPPEGANQLTISFRGQVYVFDAVGADKVDAVLSLLGGSTELAPGPQVMELAQQQNHMPVVEYQSRCSLPQRAQSLDRFRKKRNARCFEKKVRYGVRQEVALRMARNKGQFTSSKMTDGAYNSGTDQDSAQDDAHPEISCTHCGISSKCTPMMRRGPSGPRTLCNACGLFWANRGTLRDLSKKTEENQLALMKPDDGGSVADAANNLNTEAASVEEHTSMVSLANGDNSNLLGDH | soluble
5 | MFILSLLHDTVAIQPHQLSSDQQIVIKKRLNERLANKIIPDLGLCICVYDINEIGDSYILPGEGDCRARVKFRMIVFRPFVDEVIEAKVIGSSRQGLCLTIQFFEDIFVPAEKLPEPHVFEEEGQVWYWEYAQEDGEPPAKLYMDPGKIVRFRVTEIIFKDLKPELTHEERKTEKSMEIKGTMASTGLGCIGWWAAEDEDDEAVEDEQDEQEEVIQPKEEIRQPQEEVRQPVKIKEEPV | not soluble
6 | MFKHKKNEARNYSKMRESRYEYGTILKAHAAFVEIVTRPAPHRDNLPFNMSTLSVLIETSSCSWGMLASAHGDRTIGIILRAIVSFCNAHLGQSANNQLLVFAYGRNVDNKMIYSSTRCEDRNASFLVVKRLRELLSSDALTNDATIGAPLGPALAHAFCHMKKDSRVVTADPCDDSLGPQTTSEQSETASEKATNRAVVISITPIMGSEHGSLMNLFFSAAKQSICVDVVSMGDDFTGGILQQAADITGGSFLHAKKPQTLLKILMTNMLTDPTHRAVFSKLSHNSVDYRASCACHHQLVSSGWVCSICLSVLCQYTPICKVCKAAFTIANLPIKPNRKRAIRN | not soluble
7 | MFKKIATILGSTLFGTVLFAKVKEKRSYKSFLQEKMIRISGMKKTFESIDDAKKALNETKYQTAGKYNGTTYEFKHKVQIRDYYGSLVYVVNDHGLPDQRTVLYVHGGAWFQDPLENHFEYLDLLVDALDARVIMPVYPKIPHRDYRTTFELLTKIYKRLLTKIDEPENLVIIGDSAGGQIALAFAQMLKKEQLSQPGHIVLISPVLDATFKNPEARKYEKEDPMLGIDGSKYLVELWAGDAPLDDYKMSPMNGDLEGLGHITLTVGTKETLYPDAVKFSHMLNDKGIKHQFIPGYNLFHIYPLFPIPERQRFLEQLKKIIVTKEL | not soluble
8 | MFLAQPRGFCAGVVRAIEIVERALEKYGPPVYVRHEIVHNKYVVESLKAKGAIFVEELSEVPPKAVTVFSAHGVARSIEEEAAARDLPVLNATCPLVTKVHNQGKRYTSKGRTLILIGHAGHPEVEGTMGQVPGPVLLVQNLDDVAALTLPPETPVAYITQTTLSVDDTKDIIVALSKKFHDIEGPDTRDICYATQNRQSAVRQMSKLVDLILVVGANNSSNSNRLREIGTEAGIPSYLIADGSELDPAWLDGKKAVGITAGASAPEVLVDDVIEALRRIVPVTVSVLPGREENIEFVLPAELATALEHHHHHH | not soluble
9 | MFLEECKTHFNTDCLYELLGVKKDCDEKALKKGYYRQSMRWHPDKSNLVEEDMQTYTTKFQLLNKAYQILSDEEKRKIYDETGSVDDEAGELNEDALKAWRMIFKKVTKEDIDSFMKTYQGSREQKDELVVHYEKFNGDIAKIREYAIGFDGVEELKEALDKLIDDGEIEKTKKYETSTSDKKMKAYKRKAEKEAIEVENMTQNNSDLVALIQGRQKERGTSFLDSLAAKYAPSSSKKAKRQ | not soluble
10 | MFLTRSEYDRGVNTFSPEGRLFQVEYAIEAVKLGSTSIGIKTSEGVLLAAEKRSTSKLMVNDAIEKISKVDQHIGVTFAGLIADSRTLVERAQIEAQNFWFTYNRKIRVEDVTQSVANLALQFGDDDVKASMSRPFGVAMLFAGVDQEGAKLFHLDPSGTFIDCKAKSIGAASDGAEQNLKEQYHDALTIKEGLKMALAILKQVMEEKLNSANVEVVVIKPTVDAKGRPIGEFTRVSNEELDQVITSL | not soluble
11 | MFNVSALAAATPSIASVSSVASPSEQHGLSTSVGVGVNDTTSRTGDGGAASSASSASAAPQQQSQSALHNKLEAKWDTLLPTDTNLQCSTWPDSIPLLAGYSATPTFSFDPCTYGSYDPSAYFASNGIAGSMYTLPDQFPRSENDMLDNSNTSNGNKSDKDGIKLEDEDEILEDEENDEEDDGTGKRKKRKRRVLFTKAQTYELERRFRSQKYLSAPEREALAMQIRLTPTQVKIWFQNHRYKTKKSHTDKPINAALLTTMPNAFSSQSTAASFPTRAMPIPMLVRDSSARSSDISSTSPYTVAFGSANSGYLPTPSAYLPATSGYFSNGPSAASSYMTNTQWWPS | not soluble
12 | MFPERLRALRRGQKMTLAQLAAALNQMPTADKTTRQNTAAQIGNWERDLRTPSYLEVRKLAEFFNVTTDYLSGKSDQEEYDLGRIFLSGKPLTFNQEQLSSEDRYELFQLMDGYLHGRQHRVSTDATGQEELDLHFDD | not soluble
13 | MFPIHYQFSIIHYPLKKEMKLNLKNPIVFFDLETTGTNINTDRIVEICYLKVYPNGNEETKTMRINPEMHIPEASSAVHGIYDADVADCPTFKEVAKNVARDIEGCDLAGFNSNRFDIPVLAEEFLRAGVDIDMTKRKFVDVQVIFHKMEQRTLSAAYKFYCEKSLEDAHTAEADTRATYEVLKAQLDRYPDLQNDIAFLAEYSSFTKNVDFAGRMVYDDNGVEVFNFGKYKGMSVAEVLKKDPGYYSWILNSDFTLNTKAVLTKIRLREMSNLITK | soluble
14 | MFPKNAWYVACTPDELAGKPLGRRICDEPMVFYRGEDGRVAALEDFCPHRGAPLSLGFVEDGVLVCGYHGLAMGEDGRTRAMPGQRVRGFPCIRRFPVQERHGFVWVWPGAEEQADDALIPRLEWAESPDWAYGGGLYHIHCDYRLMIDNLMDLTHETYVHASSIGQKEIDEAAPTTRVEGDEVITSRHMQNVMAPPFWRMALRGNGLADDVAVDRWQICRFTPPSHVLIEVGVAHAGHGGYQAPAERKAASIVVDFITPESATSIWYFWGMARNFQAHDQALTESIREGQGKIFGEDLEMLESQQRNLLRHPRRDLLKLNIDAGGVQARRIIERLLADER | not soluble
15 | MFQDVLVITVAVGRGGDGAVSFRREKFVPKGGPDGGDGGRGGSVYLRARGSVDSLSRLSKRTYKAEDGEHGRGSQQHGRGGEDLVIEVPRGTRVFDADTGELLADLTEEGQTVLVARGGAGGRGNMHFVSPTRQAPRFAEAGEEGEKRRLRLELMLIADVGLVGYPNAGKSSLLAAMTRAHPKIAPYPFTTLSPNLGVVEVSEEERFTLADIPGIIEGASEGKGLGLEFLRHIAGTRVLLYVLDAADDPFKTLKTLRKKVWAYDPGLLGRPSLVALNKVDLLEKEAVKALADALAREGLAVLPVSALTGAGLPALKEALHALVRSTPPPEMPKPVPRKEVQAGVEVVPVAEGVYEVRAPEVERYLARIKGDLMEAAGYLQEVFRRQGVEAALRAKGVRAGDLVRIGGLEFEYIPEV | soluble
16 | MFQIIMTSTPKYSIILPTYNEKENLPICIWLIENYLKEVSHEVIIVDDASPDGTQGIAKLLQKEYGDDKILIKPRVGKLGLGTAYSHGLSFARGEFIILMDADLSHHPKFIPEMIALQHKYKLDIVTGTRYKDGGGVSGWDLKRKTISKGANFLAQFLLNPGVSDLTGSFRLYKRDILSKLIAESVSKGYVFQMEMMFRAKKSGYRIGEVPISFVDRFFGESKLGSQEIVDYAKGLLYLFAFVW | not soluble
17 | MFQQQKDWETRENAFAAFTMGPLTDFWRQRDEAEFTGVDDIPVRFVRFRAQHHDRVVVICPGRIESYVKYAELAYDLFHLGFDVLIIDHRGQGRSGRLLADPHLGHVNRFNDYVDDLAAFWQQEVQPGPWRKRYILAHSMGGAISTLFLQRHPGVCDAIALTAPMFGIVIRMPSFMARQILNWAEAHPRFRDGYAIGTGRWRALPFAINVLTHSRQRYRRNLRFYADDPTIRVGGPTYHWVRESILAGEQVLAGAGDDATPTLLLQAEEERVVDNRIHDRFCELRTAAGHPVEGGRPLVIKGAYHEILFEKDAMRSVALHAIVDFFNRHNSPSGNRSTEV | soluble
18 | MFQQQKDWETRENAFAAFTMGPLTDFWRQRDEAEFTGVDDIPVRFVRFRAQHHDRVVVICPGRIESYVKYAELAYDLFHLGFDVLIIDHRGQGRSGRLLADPHLGHVNRFNDYVDDLAAFWQQEVQPGPWRKRYILAHSMGGAISTLFLQRHPGVCDAIALTAPMFGIVIRMPSFMARQILNWAEAHPRFRDGYAIGTGRWRALPFAINVLTHSRQRYRRNLRFYADDPTIRVGGPTYHWVRESILAGEQVLAGAGDDATQTLLLQAEEERVVDNRMHDRFCELRTAAGHPVEGGRPLVIKGAYHEILFEKDAMRSVALHAIVDFFNRHNSPSGNRSTEV | not soluble
19 | MFREESRSVPVEEGEVYDVTIQDIARQGDGIARIEGFVIFVPGTKVGDEVRIKVERVLPKFAFASVVE | soluble
20 | MFRRARPLRKTTRINGLERNGLKRSGRGWNAPGADVLARHCPLLPGRADAIGRGRLIVATWPKSAAKQRQNVPPARSRTRWRSMSSCHRSGPQKRGRDSGAVTAVTGAPNGQATAFVSLNDEVDAVAAAANLWVRAKSPLHGHAEHLRCEARLATFGARRQRQRVRGRARPECPRRRRSAMADMPPSAP | not soluble
21 | MFRVLHLADLHLGYRPDLPAPVREEVYRARNRVLQAAVDLALDPRQGISLVLIAGDLFDNHRPEASLVEETIRQLTRLEAAGIQVITVPGNHDEITYNDAVYRREAGRWPGLLVTDPMPAKVATLKVKGDTCHLMAMAYTGGVTRVDGPLKAFPPAEGEGVNLAVFHGSLDWDGGERSLPLDGEALAAAGYDYIALGHIHRGGQRRLGRGLAVYAGMVAGKGFADPGTGSWTIVTLGDGPARVEQVPARVTPWRLVDLDVTAFQEPEELETAVRDALDPLEHHHHHH | not soluble
